# Data as given in patent US20250145729A1 (DENALI THERAPEUTICS, published 2025).
# Positions count from the first letter of the chain named.
# T1: human CD98hc (human, UniProt P08195 109-529)
# T1 construct: also called huCD98hc; CD98 heavy chain
# T1 sequence: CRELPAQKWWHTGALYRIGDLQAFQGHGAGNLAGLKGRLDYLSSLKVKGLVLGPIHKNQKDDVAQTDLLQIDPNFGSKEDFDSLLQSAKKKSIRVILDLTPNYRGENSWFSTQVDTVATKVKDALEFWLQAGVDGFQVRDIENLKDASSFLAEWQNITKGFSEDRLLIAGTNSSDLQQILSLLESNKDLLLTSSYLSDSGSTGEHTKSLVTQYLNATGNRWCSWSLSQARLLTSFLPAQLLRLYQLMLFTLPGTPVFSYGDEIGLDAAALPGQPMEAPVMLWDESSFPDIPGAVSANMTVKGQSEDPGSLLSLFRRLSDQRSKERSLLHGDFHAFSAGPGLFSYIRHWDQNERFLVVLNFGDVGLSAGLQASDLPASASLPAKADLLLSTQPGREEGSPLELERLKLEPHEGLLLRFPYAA
# B1: LLB2-10-5 (Fc fusion)
# chain: APELLGGPSVFLFPPKPKDTLMISRTPEVTCVVVDVSHEDPEVKFNWYVDGVEVHNAKTKPREEQYNSTYRVVSVLTVLHQDWLNGKEYKCKVSNKALPAPIEKTISKAKGQPREPQVYTLPPSRDELTKNQVSLTCLVKGFYPSDIAVLWNSRFVLENNYKTTPPVLDSDGSFFLYSKLTVDKSRWQQGEIFACNVLHEALHNHYTFKNLALSPGK
# notes: Fc part only
# B2: LLB2-10-6 (Fc fusion)
# chain: B1 chain with E191N, L198Y
# notes: Fc part only
# B3: LLB2-10-7 (Fc fusion)
# chain: B1 chain with E191N, N204S
# notes: Fc part only
# B4: LLB2-10-8 (Fc fusion)
# chain: B1 chain with L198Y
# notes: Fc part only
# B5: LLB2-10-8-d1 BV (Fc fusion)
# chain: B1 chain with L198Y, A212S
# notes: Fc part only; BV = bivalent
# B6: LLB2-10-8-d2 BV (Fc fusion)
# chain: B1 chain with I192V, L198Y, A212S
# notes: Fc part only; changes read against LLB2-10-8; BV = bivalent
# B7: LLB2-10-8-d3 BV (Fc fusion)
# chain: B1 chain with I192V, L198Y
# notes: Fc part only; BV = bivalent
# B8: LLB2-10-8-d4 BV (Fc fusion)
# chain: B1 chain with E191N, L198Y, A212S
# notes: as for B6
# B9: LLB2-10-8-d5 BV (Fc fusion)
# chain: B1 chain with E191N, I192V, L198Y, A212S
# notes: as for B6
# B10: LLB2-10-8-d6 BV (Fc fusion)
# chain: B1 chain with E191N, I192V, L198Y
# notes: Fc part only; BV = bivalent
# B11: LLB2-10-8-d7 BV (Fc fusion)
# chain: B1 chain with R154H, F155Y, V156E, L198Y, A212S
# notes: as for B6
# B12: LLB2-10-8-d8 BV (Fc fusion)
# chain: B1 chain with R154H, F155Y, V156E, I192V, L198Y, A212S
# notes: as for B6
# B13: LLB2-10-8-d9 BV (Fc fusion)
# chain: B1 chain with R154H, F155Y, V156E, I192V, L198Y
# notes: as for B6
# B14: LLB2-10-8-d10 BV (Fc fusion)
# chain: B1 chain with R154H, F155Y, V156E, E191N, L198Y, A212S
# notes: as for B6
# B15: LLB2-10-8-d11 BV (Fc fusion)
# chain: B1 chain with R154H, F155Y, V156E, E191N, I192V, L198Y, A212S
# notes: as for B6
# B16: LLB2-10-8-d12 BV (Fc fusion)
# chain: B1 chain with R154H, F155Y, V156E, E191N, I192V, L198Y
# notes: Fc part only; BV = bivalent
# B17: LLB2-10-8-d13 BV (Fc fusion)
# chain: B1 chain with R154Q, F155Y, V156E, L198Y, A212S
# notes: as for B6
# B18: LLB2-10-8-d14 BV (Fc fusion)
# chain: B1 chain with R154Q, F155Y, V156E, I192V, L198Y, A212S
# notes: as for B6
# B19: LLB2-10-8-d15 BV (Fc fusion)
# chain: B1 chain with R154Q, F155Y, V156E, I192V, L198Y
# notes: as for B6
# B20: LLB2-10-8-d16 BV (Fc fusion)
# chain: B1 chain with R154Q, F155Y, V156E, E191N, L198Y, A212S
# notes: as for B6
# B21: LLB2-10-8-d17 BV (Fc fusion)
# chain: B1 chain with R154Q, F155Y, V156E, E191N, I192V, L198Y, A212S
# notes: as for B6
# B22: LLB2-10-8-d18 BV (Fc fusion)
# chain: B1 chain with R154Q, F155Y, V156E, E191N, I192V, L198Y
# notes: Fc part only; BV = bivalent
# B23: LLB2-10-9 (Fc fusion)
# chain: B1 chain with A148V, L198Y
# notes: Fc part only
# B24: LLB2-10-10 (Fc fusion)
# chain: B1 chain with R154Q, L198Y
# notes: Fc part only
# B25: LLB2-10-11 (Fc fusion)
# chain: B1 chain with V156L, L198Y
# notes: Fc part only
# B26: LLB2-10-12 (Fc fusion)
# chain: B1 chain with L198Y, A212Q
# notes: Fc part only
# B27: LLB2-10-13 (Fc fusion)
# chain: B1 chain with R154Q, V156L, L198Y, A212Q
# notes: Fc part only
# B28: LLB2-11 (Fc fusion)
# chain: B1 chain with V156S, E191N, L198M, A212S
# notes: Fc part only
# B29: LLB2-12 (Fc fusion)
# chain: B1 chain with V156S, E191N, N204S, A212S
# notes: Fc part only
# B30: LLB2-13 (Fc fusion)
# chain: B1 chain with R154Q, V156L, E191N, A212S
# notes: Fc part only
# B31: LLB2-17 (Fc fusion)
# chain: B1 chain with A148S, V156A, N159D, Y161T
# notes: Fc part only
# B32: LLB2-18 (Fc fusion)
# chain: B1 chain with A148V, V156A, N159Q, Y161V, E191Q, Y206L, A212V
# notes: Fc part only
# B33: LLB2-20 (Fc fusion)
# chain: B1 chain with A148V, N159D, Y161V, E191A, Y206H, A212V
# notes: Fc part only
# B34: LLB2-21 (Fc fusion)
# chain: B1 chain with A148D, V156L, N159T, Y161T, A212K
# notes: Fc part only
# B35: LLB2-23 (Fc fusion)
# chain: B1 chain with A148V, N159Q, Y161V, A212V
# notes: Fc part only
# B36: LLB2-24 (Fc fusion)
# chain: B1 chain with A148E, S153T, N159T, Y161A, Y206F
# notes: Fc part only
# B37: LLB2-30 (Fc fusion)
# chain: B1 chain with R154Q, V156L, E191N, L198Y, A212Q
# notes: Fc part only
# B38: LLB2-31 (Fc fusion)
# chain: B1 chain with R154Q, E191N, L198Y
# notes: Fc part only
# B39: LLB2-37 (Fc fusion)
# chain: B1 chain with R154Q, V156H, E191N, L198Y, A212L
# notes: Fc part only
# B40: LLB2.10.8.4.12.N (Fc fusion)
# chain: B1 chain with E191N, L198Y, Y206W, A212R
# notes: Fc part only; changes read against LLB2-10-8
# B41: LLB2.10.8.9.11.N (Fc fusion)
# chain: B1 chain with E191N, I192T, L198Y
# notes: Fc part only
# B42: LLB2.10.8.10.1.N (Fc fusion)
# chain: B1 chain with E191N, L198Y, A212K
# notes: as for B40
# B43: LLB2.10.8.10.3.N (Fc fusion)
# chain: B1 chain with E191N, L198Y, A212R
# notes: as for B40
# B44: LLB2.10.8.10.8.N (Fc fusion)
# chain: B1 chain with E191N, L198Y, A212H
# notes: as for B40
# B45: LLB2.10.8.12.5.N (Fc fusion)
# chain: B1 chain with R154H, F155Y, V156E, E191N, L198Y
# notes: as for B40
# B46: LLB2.10.8.14.3.N (Fc fusion)
# chain: B1 chain with E191N, L198Y, Y206R, A212R
# notes: as for B40
# B47: LLB2.10.8.14.4.N (Fc fusion)
# chain: B1 chain with E191N, L198Y, Y206R
# notes: as for B40
# B48: LLB2.C.3 (Fc fusion)
# chain: B1 chain with L150V, R154Q, F155Y, V156E, E191N, I192V, L198W, A212S
# notes: Fc part only
# B49: LLS2.33.2 (Fc fusion)
# chain: B1 chain with L150A, R154K, V156E, E191N, I192L, L198W, A212S
# notes: Fc part only; also called LLB2.33.2
# Molecular target: T1, human CD98hc
# Assay: SPR (Biacore)
# How it was run: (§1)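 Surface plasmon resonance on a Biacore instrument was used to measure the binding affinity (Kd) of engineered Fc polypeptides for CD98hc. Each clone was cloned, expressed and purified as an Fc-Fab fusion bearing anti-BACE1 Fabs. Testing used either a bivalent format or a monovalent knob/hole format in which only the knob chain carried the CD98hc-binding site.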
row,Binder,Kd [nM]
1,B1,390
2,B2,460
3,B3,1100
4,B4,170
5,B5,280
6,B6,490
7,B7,490
8,B8,670
9,B9,1470
10,B10,1480
11,B11,410
12,B12,820
13,B13,840
14,B14,1400
15,B15,2400
16,B16,2100
17,B17,650
18,B18,960
19,B19,1000
20,B20,650
21,B21,960
22,B22,880
23,B23,250
24,B24,220
25,B25,230

row,Binder,Kd [nM]
1,B26,210
2,B27,260
3,B28,1300
4,B29,990
5,B30,850
6,B31,2000
7,B32,1800
8,B33,1200
9,B34,420
10,B35,500
11,B36,1100
12,B37,450
13,B38,640
14,B39,610
15,B40,140
16,B41,1200
17,B42,500
18,B43,490
19,B44,650
20,B45,1500
21,B46,270
22,B47,350
23,B48,1000
24,B49,2000

# Molecular target: T2, cyno CD98hc (cynomolgus monkey)
# T2 construct: also called cynomolgus CD98hc; cyCD98hc
# Assay: SPR (Biacore)
# How it was run: as §1
row,Binder,Kd [nM]
1,B1,2200
2,B2,2100
3,B3,6200
4,B4,890
5,B5,1500
6,B6,2300
7,B7,2600
8,B8,2600
9,B9,5500
10,B10,5300
11,B11,2000
12,B12,3500
13,B13,4200
14,B14,4200
15,B15,7200
16,B16,5970
17,B17,2600
18,B18,4050
19,B19,4600
20,B20,2500
21,B21,4100
22,B22,3010
23,B23,1300
24,B24,1100
25,B25,1200

row,Binder,Kd [nM]
1,B26,1200
2,B27,1100
3,B28,8200
4,B29,5000
5,B30,3800
6,B31,9200
7,B32,9100
8,B33,5500
9,B34,2300
10,B35,2600
11,B36,6200
12,B37,2000
13,B38,2100
14,B39,2800
15,B40,700
16,B41,4500
17,B42,1800
18,B43,2000
19,B44,2200
20,B45,4700
21,B46,1900
22,B47,2360
23,B48,3500
24,B49,4500
